Reference: patent US7514534

T1: MMP-26 (human)
T1 sequence: ASDF

B1: A1-orig (antibody, human IgG4, V domains shown)
VH: EVQLLESGGGLVQPGGSLRLSCAASGFTFSYYRMSWVRQAPGKGLEWVSSIGPSGGDTLYADSVKGRFTISRDNSKNTLYLQMNSLRAEDTAVYYCARSFSSGPYYFDYWGQGTLVTVSS
VL: QSVLTQPPSASGTPGQRVIISCSGSSSNIGSHYVHWYQQVPGTAPKLLIYRNGQRPSGVPDRFSGFKSGTSASLAISGLRSEDEANYYCATWDDSVLFGGGTTLTVLG
B2: D6-orig (antibody, human IgG4, V domains shown)
VH: EVQLLESGGGLVQPGGSLRLSCAASGFTFSMYSMRWVRQAPGKGLEWVSSIYPSGGSTEYADSVKGRFTISRDNSKNTLYLQMNSLRAEDTAVYYCAREGGENDYWGQGTLVTVSS
VL: DIQMTQSPLSLSASVGDRVAITCRASQSIDTYLNWYQQKPGKAPKLLIYAASKLEDGVPSRFSGSGTGTDFTLTIRSLQPEDFASYFCQQSYSSPGITFGPGTKVEIKR
B3: H6-orig (antibody, human IgG4, V domains shown)
VH: EVQLLESGGGLVQPGGSLRLSCAASGFTFSQYWMNWVRQAPGKGLEWVSGIGPSGGITYYADSVKGRFTISRDNSKNTLYLQMNSLRAEDTAVYYCARGEEDGYNSDYWGQGTLVTVSS
VL: QSELTQPPSASGSPGQSVTISCTGTSSDVGAYNYVSWYQQHPGKAPKLIIYEVNKRPSGVPDRFSASKSGNTASLTVSGLQAEDEADYYCNSYAGSNSLIFGGGTKLTVLG
B4: A01 (antibody, human IgG4, V domains shown)
VH: EVQLLESGGGLVQPGGSLRLSCAASGFTFSAYNMFWVRQAPGKGLEWVSGIGSSGGIAPYADSVKGRFTISRDNSKNTLYLQMNSLRAEDTAVYYCARAAYEVENWFDPWGQGTLVTVSS
VL: DIQMTQSPGTLSLSPGERATLSCRASQIVRSTYLAWYQQKPGQAPRLLIYGTSSRATGVPDRFSGSGSGTDFTLTISGLEPEDFALYYCQRYGDSPPITFGQGTRLEITR
B5: A04 (antibody, human IgG4, V domains shown)
VH: EVQLLESGGGLVQPGGSLRLSCAASGFTFSEYNMAWVRQAPGKGLEWVSRIGSSGGKTKYADSVKGRFTISRDNSKNTLYLQMNSLRAEDTAVYYCARDEAPDYGDDAEAFDIWGQGTMVTVSS
VL: QSALTQPPSASGTPGQRVTISCSGGYSNMGSNYAHWYQQVPGTAPKLLIYNNNQRPSGVPDRFSGSKSGTSASLAISGLRSEDEADYYCAAWDENLSGPVFGTGTKVTVLG
B6: A11 (antibody, human IgG4, V domains shown)
VH: EVQLLESGGGLVQPGGSLRLSCAASGFTFSWYTMMWVRQAPGKGLEWVSRISPSGGHTLYADSVKGRFTISRDNSZNTLYLQMNSLRAEDTAVYYCARDTWDDYYDSSGYYNDFDYWGQGTLVTVSS
VL: QSALTQPPSVSLAPGQTARITCGGNNIGTKSVHWYQQKPGQAPVLVVYDDSDRPSGIPERFSGSNSGNTATLTISRVEAGDEADYYCQVWDSGSDHQVFGGGTKLTVLG
B7: B04 (antibody, human IgG4, V domains shown)
VH: EVQLLESGGGLVQPGGSLRLSCAASGFTFSFYWMMWVRQAPGKGLEWVSGISSSGGFTKYADSVKGRFTISRDNSKNTLYLQMNSLRAEDTAVYYCARETSRRAFDIWGQGTMVTVSS
VL: DIQMTQSPSSVSASVGDRVTITCRASQGISKSLAWYQQKPGKAPKLLVYGAFSLESGVPSRFSGTGAGTDFILTISRLQPEDFATYYCQQANSFPLTFGGGTKVEIKR
B8: B06 (antibody, human IgG4, V domains shown)
VH: EVQLLESGGGLVQPGGSLRLSCAASGFTFSQYFMKWVRQAPGKGLEWVSSISPSGGLTQYADSVKGRFTISRDNSKNTLYLQMNSLRAEDTAVYYCARGGIEAPGSPSDYWGQGTLVTVSS
VL: DIQMTQSPSFLSASVGDRVTITCRASQGISSYLAWYQQKPGKAPKLLIYAASTLQSGVPSRFSGSGSGTDFTLTISSLEPEDFATYYCQESYSTPFFTFGPGTKVDIRR
B9: B10 (antibody, human IgG4, V domains shown)
VH: EVQLLESGGGLVQPGGSLRLSCAASGFTFSSYAMMWVRQAPGKGLEWVSWIVPSGGTTFYADSVKGRFTISRDNSKNTLYLQMNSLRAEDTAVYYCARGLYRWGQGTLVTVSSASTKGPSVFP
VL: DIQMTQSPSSLSASVGDRVTIACRTSQNVNRYLNWYQHKLGQAPKLLIYGATILQSGVPSRFRGSGSGTDFILTITNLQPEDFAVYYCQQTYSPPLTFGQGTKAEFKGTVAAPSV
B10: C01 (antibody, human IgG4, V domains shown)
VH: EVQLLESGGGLVQPGGSLRLSCAASGFTFSNYGMSWVRQAPGKGLEWVSVIGPSGGITMYADSVKGRFTISRDNSKNTLYLQMNSLRAEDTAVYYCATGSSSGWYPNFDYWGQGTLVTVSS
VL: DIQMTQSPSTLSASVGDRVTITCRASQSIGNWLAWYQQKPGEAPHLLIYQASSLEGGVPSRFSGSGSGTKFTLNISSLQPDDFATYYCQQYNSYSYTFGQGTKLDIKR
B11: C04 (antibody, human IgG4, V domains shown)
VH: EVQLLESGGGLVQPGGSLRLSCAASGFTFSMYFMVWVRQAPGKGLEWVSWIGSSGGETPYADSVKGRFTISRDNSKNTLYLQMNSLRAEDTAVYYCARGYSSGWYVMGDYWGQGTLVTVSS
VL: QSALTQPPSASGTPGQRVTISCSGTSSNIGSHYVFWYQQLPGTAPKLLIHRNDERPSGVPDRFSGSKSGTSASLAISGLQSEDEADYYCATWDDNLNGPVFGGGTKLT
B12: C05 (antibody, human IgG4, V domains shown)
VH: EVQLLESGGGLVQPGGSLRLSCAASGFTFSSYQMDWVRQAPGKGLEWVSRIVPSGGDTTYADSVKGRFTISRDNSKNTLYLQMNSLRAEDTAVYYCARHVYYDSSDYFPNPFDYWGQGTLVTVSS
VL: QSELTQPPSVSGTPGQRVTISCSGSSSNIGSEYVYWFQQLPGTAPRLLIYRNDQRPSGVPDRFSGSKSGTSASLAISGLRSEDETDYYCTTWDDSLSGPVFGGGTKLTVLG
B13: C08 (antibody, human IgG4, V domains shown)
VH: EVQLLESGGGLVQPGGSLRLSCAASGFTFSYYEMMWVRQAPGKGLEWVSSISPSGGPTMYADSVKGRFTISRDNSKNTLYLQMNSLRAEDTGVYYCARKMGRVGYCSSTSCYRDDYYGMDVWGQGTTVTVSS
VL: DIQMTQSPPSLSALVGDRVTITCRASQSISRYVNWYQQKPGKAPKVLIYAASIVENGVPSRFSGSGSGTDFSLTISSLQPEDFATYYCQQTYSTPLTFGGGTKLAIKR
B14: C11 (antibody, human IgG4, V domains shown)
VH: EVQLLESGGGLVQPGGSLRLSCAASGFTFSEYPMWWVRQAPGKGLEWVSWIYPSGGNTDYADSVKGRFTISRDNSKNTLYLQMNSLRAEDTAVYYCAIPYCSSSSCPLHWGQGTLVTVSS
VL: QSELTQPPSASGSPGQSVTISCTGTSSDVGGYNYVSWYQQHPDKAPKLLIYEVTQRPSGVPDRFSGSRSGNTASLTVSGLQAEDEADYYCSSYAGRNNLYVFGPGTKVTVLG
B15: C12 (antibody, V domains shown)
VH: EVQLLESGGGLVQPGGSLRLSCAASGFTFSAYNMMWVRQAPGKGLEWVSRIYPSGGYTLYADSVKGRFTISRDNSKNTLYLQMNSLRAEDTAVYYCARQKLMIRAVRPFDYWGQGTLVTVSS
VL: QSELTQPPSVSVSPAQTASITCSGDKLGDKYACWYQQKPGQSPVLVIYEDTKRPSGIPERFSGSNSGNTATLTISGTQVMDEADYYCQVWDSSTAVFGGGTKLTVLG

Target: T1, MMP-26 (human)
Test: cell-based or functional assay

Binder | % Inhibition of JEG-3 cell invasion, 1 µg/ml (further test) [%] | % Inhibition of JEG-3 cell invasion, 5 µg/ml (first test) [%] | % Inhibition of JEG-3 cell invasion, 5 µg/ml (further test) [%] | % Inhibition of JEG-3 cell invasion, 25 µg/ml (first test) [%] | % Inhibition of JEG-3 cell invasion, 25 µg/ml (further test) [%] | % Inhibition of JEG-3 cell invasion, 50 µg/ml (further test) [%]
B1 | 53 | 40 | 58 | 66 | 64 | 74
B2 | 42 | 41 | 55 | 52 | 70 | 35
B3 | 49 | 24 | 52 | 50 | 57 | 39
B4 | 30 | 19 | 47 | 51 | 54 | 70
B5 |  | 6 |  | 27 |  | 
B6 | 51 | 28 | 54 | 56 | 59 | 73
B7 |  | 36 |  | 14 |  | 
B8 |  | 34 |  | 30 |  | 
B9 | 6 | 48 | 5 | 26 | 11 | 22
B10 | -2 | 43 | 16 | 34 | 21 | 42
B11 | 1 | 35 | 11 | 36 | 18 | 32
B12 |  | 16 |  | 32 |  | 
B13 | 34 | 45 | 42 | 49 | 49 | 62
B14 |  | 28 |  | 29 |  | 
B15 | 36 | 49 | 35 | 38 | 49 | 27
